{"source": "the supplement of paper PMC12636428"}
{"test_system": "Saccharomyces cerevisiae", "assay": "transcriptional activation domain activity (GFP:mCherry ratio, weighted mean of sorted bins, harmonized to initial dataset scale) (arbitrary fluorescence ratio units); higher = stronger transcriptional activation", "conditions": "beta-estradiol 1 µM; induction time 4 h", "in_short": "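Values are activation activity, found as the read-weighted mean of bin median fluorescence, averaged across barcodes and then mapped linearly onto the initial dataset scale. Barcoded protein tiles fused to an estradiol-inducible synthetic transcription factor were integrated at the URA3 locus of GFP-reporter yeast diploids. Cells were induced for 4 hours at 30 °C with 1 uM beta-estradiol in SC, sorted into 8 bins by GFP:mCherry ratio, and barcode-sequenced, with tiles under 50 reads discarded.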"}
{"sequence": "SASASASGATASASASAAAGAGGKGGFGGKGGFGGGFGGKGQGGKGGKGGAAA", "transcriptional activation domain activity": 34000}
{"sequence": "SASEIRVDSFRKIMSIPLAIFTLRPRHVFVAVRRVCRSCTNYLVVLALYMALF", "transcriptional activation domain activity": 51800}
{"sequence": "SASKPAAVTDADEAARPVKKPARPSPGDEDKPEKKEESSRKIETQQPKKAAAQ", "transcriptional activation domain activity": 25500}
{"sequence": "SASPDESRRSSHRSRRDRDYEKRRDRGEERDSDHDHRRKSHSHRDRERDRGRD", "transcriptional activation domain activity": 30000}
{"sequence": "SASSKNGDKPKTVRKKGGEPEVSKESTPKPRTTARNRKGAKQEEAKNKTITGR", "transcriptional activation domain activity": 41300}
{"sequence": "SASSNTRPREPSPEPYRKPREESRDRKRHRSRDRRRDRSPGGKKSRAREGRRD", "transcriptional activation domain activity": 35900}
{"sequence": "SASSPAATSPSACPTSSPRLRSPSSPSPSSQPPASPCTRSCPPPRPAARTARP", "transcriptional activation domain activity": 47500}
{"sequence": "SASSRESSASASHSASKSESSAAASRTSSAPATQSTGAAVANRAGVVGAVAGG", "transcriptional activation domain activity": 57700}
{"sequence": "SASSSAPRKPVSISIGGGGGGAAAAAAAPPADKKPVSISIGGSSAKAAAPAAA", "transcriptional activation domain activity": 38800}
{"sequence": "SATARTTTTTRTATSTTTTAKPSTTTRPSTTTTTTAARRPGTTTTTPARTSVT", "transcriptional activation domain activity": 38700}
{"sequence": "SATEFVTVGGTGNVYHWDMEYSFSRNDDDNEDEVRVAAPEELQGQCLKFFHTG", "transcriptional activation domain activity": 51000}
{"sequence": "SATIFSPFDTHLLEPVPSSSSESSAEVMFHGKQMKNFLIDINSFTNQQQQAQD", "transcriptional activation domain activity": 38700}
{"sequence": "SATPATSEAAKPATSSLFGNGSSTTTAGATAAKPSLFGAAQSTPTTQPATTGA", "transcriptional activation domain activity": 38800}
{"sequence": "SCCMLQVISGIAMGNSCLARMNFWPVIASNFPWLLIVIINYTMFFNWMLSYFL", "transcriptional activation domain activity": 62400}
{"sequence": "SCDNIDNAEDKCSYALEYCMDATPGLLNYIQLYYCSSVKPFVFIVLCLWLLFL", "transcriptional activation domain activity": 36000}
{"sequence": "SCFIFLGHHFDVFVSFLLKIGLGDEMLGVLWFFFSCVLLVGAFLLRLLGFYHT", "transcriptional activation domain activity": 67900}
{"sequence": "SCIVLYACSKIIIYLFLMEKVYVVTAVGATRANFMLYRINLSLLIPYVGIFAL", "transcriptional activation domain activity": 52300}
{"sequence": "SCLAVITWDVLNFLIVDCHIIFYRKFNWRVLVFIVARLSPYCFFLSLSISLTS", "transcriptional activation domain activity": 60900}
{"sequence": "SCLMWVVSCALFMCGQLVFFDLNYYWNLTLVSYFLELSIVLVLMFMKLWLSKR", "transcriptional activation domain activity": 30400}
{"sequence": "SCMVYSIHNTTILILSFSPSPLNFFFFSSWLLFIFFFFLFLFLFLFLFLFLFL", "transcriptional activation domain activity": 39900}
{"sequence": "SCTGVFRAYSILIIMVMMLSEVIILFRTCVLIRRERHGHYIICILCFFSLCVL", "transcriptional activation domain activity": 49600}
{"sequence": "SDAAVELCVAAAPRNGESNKAVVQVLSHVSTHHLHLESLLTCLSQALKIPKMD", "transcriptional activation domain activity": 42000}
{"sequence": "SDASAGAEAGTDGSAAPPKKKPRQKRAAPLPGEEGYDAAASKPKRAPRKRKAS", "transcriptional activation domain activity": 25300}
{"sequence": "SDASEGSKGRAREDPSDRAVVEYQGLSRFSSIPEKEKVWAYVVKIVKLLATTK", "transcriptional activation domain activity": 34600}
{"sequence": "SDDDEPPAKAAPKPKPRPVGKAKAKAREPEPESDGEVSAVQKKKKRKIGIFQS", "transcriptional activation domain activity": 37600}
{"sequence": "SDDETSRSHKKSSRRDTSQDDAERGRHHHKSSRHKGERDRHHKIRSRSRSPAR", "transcriptional activation domain activity": 13900}
{"sequence": "SDDGGSSSEIIRVLGGPSIGDIRSRLIRLMPSAPPNSPLDAICRLLAYRLPVQ", "transcriptional activation domain activity": 37600}
{"sequence": "SDDSSEASAIDSGDSSSQSSSDSDSEDAKKKTRRKTAKAKAKAKSKSKNSKKV", "transcriptional activation domain activity": 24800}
{"sequence": "SDDVNSTMEDDDTPIEKHWLNIDQPLGSEKETTTLSILWMLLLLQLSHICTDP", "transcriptional activation domain activity": 76600}
{"sequence": "SDEEEAEVIPAKKARGKKAPVKQEEIQSDEEVLTAKKPAKQARGKKAPAAAVK", "transcriptional activation domain activity": 30600}
{"sequence": "SDEEEKPKPKQGKKKAKAPKKEEEFEGEPEEEEKPKPKKTNGRKKAVKAEEED", "transcriptional activation domain activity": 36300}
{"sequence": "SDEEGEMADRLADDDLDVSVLKTAKELAETAALYRIRNRRPTAHLVLPRVVEG", "transcriptional activation domain activity": 40200}
{"sequence": "SDESTKADSGNKDNPGGAEKSGDEKEKEKDGGTSRMRSRKGKFRKNKAEDIEK", "transcriptional activation domain activity": 30400}
{"sequence": "SDGEESDAGAKERKRKKKRRAKDSESESSDEEEKRKKTKRSKSKSKRRSPSPS", "transcriptional activation domain activity": 25700}
{"sequence": "SDKKAGNDKEEKKEEKKADGSEEKGKKVKDAEKEKEDKKSQQSEKKADDNGDK", "transcriptional activation domain activity": 25000}
{"sequence": "SDKLHRLRWRLGSLEDVLTTFSYLKFEQYLIPIVYLLLRRHTNIIFLAAHWVL", "transcriptional activation domain activity": 64000}
{"sequence": "SDNGTENNGETKKRYDPKDPLRPRRKKARRACYACQRAHLTCGDERPCQRCIK", "transcriptional activation domain activity": 16400}
{"sequence": "SDNQPDFVDFQELLDNDTLGNDLLETTAVLKEFELLHDDSVSATATSNEIDLS", "transcriptional activation domain activity": 115000}
{"sequence": "SDSDEEDEDERAEDAEVDTSASVNRLRDAQAEVETGDVTRRIAIVNLDWDHIK", "transcriptional activation domain activity": 29200}
{"sequence": "SDSEEEDDAEKEDEEEEQRPKKTVKVEEVVKKAFGADGATVWVGQLSYEATSD", "transcriptional activation domain activity": 32500}
{"sequence": "SDSGSEGDSDSDRGRSRKRKKGKSTGKSKSKSKSKSRRNASGSDDESESGSGS", "transcriptional activation domain activity": 35300}
{"sequence": "SDSGSEVDEKNNKNEKIDSESIKNNESKDDIPSKDENSSNDNREISKTDEEGH", "transcriptional activation domain activity": 35100}
{"sequence": "SDSQKSGKIWGLCCTDSFGCLDLIIGLDLSDVLLVIQWRSTCDMCTLWQRLGH", "transcriptional activation domain activity": 53500}
{"sequence": "SDVEDEESSEDEAPARGKKRGRAGQAAKRRRESSLLVTVFADVLVTDVSVFVG", "transcriptional activation domain activity": 59400}
{"sequence": "SDVLFVSLNLLYFWCYLIPLLATIWIRLGNADSTINDRLSVHFYSVAFLLLLF", "transcriptional activation domain activity": 32800}
{"sequence": "SDYGLHLRHVLLLSPTIFPIIFAALMGRCFRSIGLYRAERGISLIRLEQLIGC", "transcriptional activation domain activity": 55900}
{"sequence": "SEAESEAEAEAEEATEPEVSQEKPKRGRKKKEVEVEIKEKPSRKPAGRPKKEK", "transcriptional activation domain activity": 12300}
{"sequence": "SEAVDFEVPDDFVVSWTGDLLPHTIIYCDFPPPMSVALFEPQPSDMDFDWFWI", "transcriptional activation domain activity": 71600}
{"sequence": "SEDERPRGGLKGRKGKKRVEREETSGGSDESSDEEGKRGKAKAGGKREVRTRS", "transcriptional activation domain activity": 31900}
{"sequence": "SEEAQEEAQQPKKKKRTRASDMWKEEGKAEKKEKKKAKKGKKHSKLEEPAEKA", "transcriptional activation domain activity": 14500}
{"sequence": "SEEDEIKAGEEVPKKRRRRQALSCTECKRRKIKCDRQHPCGPCVRRTEADKCH", "transcriptional activation domain activity": 52300}
{"sequence": "SEEETSRSRSSKKHAISSGSDSDRDSRKVRKSRHSSSDEERYQKSHKSSSRRR", "transcriptional activation domain activity": 52400}
{"sequence": "SEESEGETGGKRKRKASSSSGRGEKGKKSKRGGGPEARTRKRKAAAETAETGE", "transcriptional activation domain activity": 23500}
{"sequence": "SEGLLCPLPRYPPHPIVSQLMQTSALRSLQTIVQLQRAHFMTLLFWNILLAFY", "transcriptional activation domain activity": 57100}
{"sequence": "SEIALSSSTHSLRLYGKSVGGGKVAGMVRMAYSAKSGVTVKVSVRSEEGGLAG", "transcriptional activation domain activity": 37500}
{"sequence": "SEPEEEDSSSKKRKRKADDEGKKKAKKGKKAAGSDDEDEDANSVHISVTQAVS", "transcriptional activation domain activity": 36600}
{"sequence": "SEPELYVPQFKLDPVNGFWFPHFVKYIILILMLGLYVLIIFWTFMICKVVYRL", "transcriptional activation domain activity": 33300}
{"sequence": "SEPTAGNEGKEETSAPKKEESKPAESEKKAEEPKQEQPKKEEKKAEGKPASGS", "transcriptional activation domain activity": 31400}
{"sequence": "SERLKNTGASGERAREGISINAGLASLGKVISQLSSRQPGAHVSYRDSKLTRL", "transcriptional activation domain activity": 48800}
{"sequence": "SERRSHNQRDPERRDRNSNQSKRRRVDDSDSESDRRNRRRRVEHSSRKSHRSR", "transcriptional activation domain activity": 43800}
{"sequence": "SERSERRADERSSRNGPSEAERGSERERGGREKRGGDRESSRRERERGGEARE", "transcriptional activation domain activity": 17200}
{"sequence": "SESDTDSEEEEIEEDEGAAETRPGIRLQREEKAVETGEITNRLAIVNIDWDHL", "transcriptional activation domain activity": 32000}
{"sequence": "SEVKYFWSYYNHVCFLVIPIDDNGLSIFFSCFTGESVEIILSIICVAMTQVLT", "transcriptional activation domain activity": 35200}
{"sequence": "SFALCNRIVVGCAILRTGKILKSWHVARVSHFSTFVFNGVIHGSIPNMILTRK", "transcriptional activation domain activity": 55100}
{"sequence": "SFCFILPFTALTLFIFFLSRISCWSAVWWLDDFWLLHICLDISFTFFLFYSFF", "transcriptional activation domain activity": 62800}
{"sequence": "SFCVRHKFMWPLFRTRFIPCPVVSLIVLPTLFIVAYLPQVAFLAIFQGNLAWF", "transcriptional activation domain activity": 58000}
{"sequence": "SFFFFFSYFYLDSLFLVLLPFTLCFYLFLVLWVCWLVGWFVGWLARFALSLSL", "transcriptional activation domain activity": 55400}
{"sequence": "SFGDLVSVGPRQYYRPTHSLTIISICEEDNNLPASLVKRFNMLMALLVILTNT", "transcriptional activation domain activity": 41300}
{"sequence": "SFHAFFFLYLPCCLFFYFCIVLVLVLVGYWCLVFFFIVFGSFPPPLLSKYLHL", "transcriptional activation domain activity": 46200}
{"sequence": "SFIHSLLYAFLSFFPHLFISYFLSSFYYLSTHLFLSFFPFLVILFTSCYQNLS", "transcriptional activation domain activity": 57700}
{"sequence": "SFILLFFYSFILLFFYSFILLFFWFFFCLWILIFSLFYSTIIITIKKRKAHTY", "transcriptional activation domain activity": 59300}
{"sequence": "SFKPAPAPAAEEAPKTEETPAPAETEAAAEEAKPAEEPKKEEVKEEPKRRSAS", "transcriptional activation domain activity": 35500}
{"sequence": "SFLEGAQHVVLGPGNFQWRGTKCKSFDAFIFNFIRVPRLEYWKLIRRSNCYRY", "transcriptional activation domain activity": 52500}
{"sequence": "SFLIFLLCEYARHVLVTSITVPHYLEYADVWRGNGQMDFRLLIRMFSTDTRRK", "transcriptional activation domain activity": 45000}
{"sequence": "SFLIGGGSAFWLITYGLFYWASRLSLDSLASVVLYLGYLFLLALFDFLITGTI", "transcriptional activation domain activity": 36700}
{"sequence": "SFLNDAMSEIHTFGDFNGELDSTFLEFSGTEIKEPNNFITENTNAIETAAASM", "transcriptional activation domain activity": 113000}
{"sequence": "SFLSLFWLLCLGRFPIITKLFLGLYAVFYYVSRYKIGICFVVSIRWIWKSGNR", "transcriptional activation domain activity": 45600}
{"sequence": "SFLSPFCRWVGGSFFVIIWSLFFLSLLFSPPCQPGFISWSFWTAGFLVFFFLF", "transcriptional activation domain activity": 46500}
{"sequence": "SFLYWGSAGLFGIYVMSFQDSWWYQMEHLWVKYPHWMMRSELKVYYLLQFSYW", "transcriptional activation domain activity": 21600}
{"sequence": "SFMKVLFLLTRYIPFLSTPLDLYYLLAPNMTFRTCLVTFMISRWLLCAGIVCA", "transcriptional activation domain activity": 56200}
{"sequence": "SFMWVLVWLLVHIFKKFATITVDSATINRLARAFSSFDTGTVLTKEVILRLWR", "transcriptional activation domain activity": 52100}
{"sequence": "SFNDTSFLNMEDPIRNEFSFDNGDRAVTDLPRSAHFLSDTGLEGINFSGLNDS", "transcriptional activation domain activity": 55200}
{"sequence": "SFNLLLYGCVLADIGINLSFSCAVSYSHNRKASDVPHILELLFICMLQCCYIG", "transcriptional activation domain activity": 60000}
